Laboratory results as given in article PMC6139572, “Structural and functional effects of myosin-binding protein-C phosphorylation in heart muscle are not mimicked by serine-to-aspartate substitutions” (The Journal of Biological Chemistry, 2018).
Each block holds one binder with its values, some of them ahead of it.

Tests used:
Conditions in all cases: both partners purified
[1] = biological target: isolated native thin filaments (UniProt P68032 1-377); experiment: co-sedimentation; high-velocity co-sedimentation of C1mC2 constructs with isolated native thin filaments; performed as described in ref. 15
[2] = biological target: T1, myosin S2Δ, the first 126 amino acids of myosin sub-fragment 2 (rat heart) (rat, Alexa 647 (labelled with Alexa 647–NHS, efficiency of ~80%)); experiment: MST; as a2 (pH 7, 50 mmol/liter KCl); 30 °C
T1 construct: cardiac myosin heavy chain cloned from a rat heart cDNA library; the first 126 amino acids of myosin S2; also called Alexa 647–myosin S2Δ; source: E. coli BL21(DE3)-RIPL, purified (HisTrapFF, TEV, Mono Q); not shown: His6, N-terminal, cleaved

[3] = biological target: T1, myosin S2Δ, the first 126 amino acids …; experiment: MST; isolated m-motif titrated against 100 nmol/liter Alexa 647–myosin S2Δ; MST buffer adjusted to pH 6.2, enhanced gradient standard capillaries; 50 mmol/liter KCl; 30 °C

Kd [1]: 16 µM
B1: C1mC2 of rat cardiac myosin-binding protein-C with three phosphorylatable serines mutated to aspartate (domain or fragment)
chain: PIGLFLMRPQDGEVTVGGSIVFSARVAGASLLKPPVVKWFKGKWVDLSSKVGQHLQLHDSYDRASKVYLFELHITDAQATSAGGYRCEVSTKDKFDSCNFNLTVHEAIGSGDLDLRSAFRRTDLAGTGRRTDDSHEDAGTLDFSSLLKKSDFRRDSKLEAPAEEDVWEILRQAPPSEYERIAFQHGVTDLRGMLKRLKGMKHDEKKSTAFQKKLEPAYQVNKGHKIRLTVELADPDAEVKWLKNGQEIQMSGRYIFESIGAKRTLTISQCSLADDAAYQCVVGGEKCSTELFVKEP

Kd [2]: 477 µM
B2: C1–C2, construct containing Ig domains C1 and C2 of rat cardiac myosin-binding protein-C connected by a flexible linker, with the m-motif deleted (domain or fragment)
chain: PIGLFLMRPQDGEVTVGGSIVFSARVAGASLLKPPVVKWFKGKWVDLSSKVGQHLQLHDSYDRASKVYLFELHITDAQATSAGGYRCEVSTKDKFDSCNFNLTKKSTAFQKKLEPAYQVNKGHKIRLTVELADPDAEVKWLKNGQEIQMSGRYIFESIGAKRTLTISQCSLADDAAYQCVVGGEKCSTELFVKEP

Kd [3]: 41.1 µM
B3: isolated m-motif of rat cardiac myosin-binding protein-C (domain or fragment)
chain: VHEAIGSGDLDLRSAFRRTSLAGTGRRTSDSHEDAGTLDFSSLLKKSSFRRDSKLEAPAEEDVWEILRQAPPSEYERIAFQHGVTDLRGMLKRLKGMKHDE
